Assay results: patent USRE43497 (FRAUNHOFER GESELLSCHAFT ZUR FORDERUNG DER ANGEWANDTEN …, dated 2012)

Tests used:
[1] = molecular target: T1, biotin-labelled Jab1 (in vitro translated) (human, UniProt Q92905 2-334, biotin-labelled during in vitro translation (Transcend non-radioactive translation detection system); positions not stated); test: competition with wildtype MIF for biotin-Jab1 in TNT reticulocyte lysate
T1 construct: also called biotin-Jab1; biotin-labelled p38^Jab1

[2] = molecular target: T2, Recombinant human MIF (macrophage migration inhibitory factor) (human, UniProt P14174 2-115); test: assay not described
T2 construct: Used soluble (1 uM in TNT lysates); also called rMIF; rwtMIF
T2 sequence (P14174 2-115 limits assumed): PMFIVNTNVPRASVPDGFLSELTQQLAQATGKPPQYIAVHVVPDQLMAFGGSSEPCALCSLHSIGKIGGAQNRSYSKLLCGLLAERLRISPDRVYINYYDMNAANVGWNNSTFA

T1 sequence (Q92905 2-334 limits assumed): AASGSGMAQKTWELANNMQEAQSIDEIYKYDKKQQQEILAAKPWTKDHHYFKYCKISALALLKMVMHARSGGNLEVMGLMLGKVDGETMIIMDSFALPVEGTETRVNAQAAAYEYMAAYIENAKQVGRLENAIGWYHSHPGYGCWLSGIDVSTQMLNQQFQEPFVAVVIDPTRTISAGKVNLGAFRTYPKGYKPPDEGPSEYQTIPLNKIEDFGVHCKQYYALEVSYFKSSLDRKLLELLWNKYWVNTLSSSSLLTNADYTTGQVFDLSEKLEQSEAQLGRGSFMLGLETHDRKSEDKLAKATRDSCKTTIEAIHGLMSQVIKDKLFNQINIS

binding result [1]	binding result [2]	Binder
binds	–	FGGSSEPCALCSLHSI (16 residues, positions 50-65 of wildtype MIF; also called MIF peptide (50-65); Cys60-spanning 16 residue MIF peptide) [MIF (50-65) peptide]
–	no binding	p27^Kip1 (other, UniProt P46414 1-197, looked up) MSNVRVSNGSPSLERMDARQAEHPKPSACRNLFGPVNHEELTRDLEKHCRDMEEASQRKWNFDFQNHKPLEGRYEWQEVERGSLPEFYYRPPRPPKSACKVLAQESQDVSGSRQAVPLIGSQANSEDRHLVDQMPDSSDNPAGLAEQCPGMRKRPAAEDSSSQNKRANRTEENVSDGSPNAGTVEQTPKKPGLRRQT
binds	–	FGGSSEPSALSSLHSI (also called analogue of the MIF (50-65) peptide with the two Cys residues substituted for Ser) [Ser^57 Ser^60 MIF (50-65) peptide]
